Laboratory results as given in US20250277048A1 (Regeneron, published 2025).

Tests used:
[1] = biological target: T1, human CD40 (hCD40) expressed on cells (human, UniProt P25942 21-277); experiment: cell-based or functional assay
[2] = biological target: T1, human CD40 (hCD40) expressed on cells; experiment: cell-based or functional assay; remark: listed apart in the source
[3] = biological target: T1, human CD40 (hCD40) expressed on cells; experiment: cell-based or functional assay; remark: listed apart in the source
[4] = biological target: T1, human CD40 (hCD40) expressed on cells; experiment: cell-based or functional assay; remark: listed apart in the source
[5] = biological target: T1, human CD40 (hCD40) expressed on cells; experiment: cell-based or functional assay; remark: listed apart in the source
[6] = biological target: T1, human CD40 (hCD40) expressed on cells; experiment: cell-based or functional assay; remark: listed apart in the source
[7] = biological target: T1, human CD40 (hCD40) expressed on cells; experiment: cell-based or functional assay; remark: listed apart in the source
[8] = biological target: T1, human CD40 (hCD40) expressed on cells; experiment: cell-based or functional assay; remark: listed apart in the source
[9] = biological target: T1, human CD40 (hCD40) expressed on cells; experiment: cell-based or functional assay; remark: listed apart in the source
[10] = biological target: T1, human CD40 (hCD40) expressed on cells; experiment: flow cytometry, Ramos 2G6.4C10 cells
Description: (§1) Cells were washed with 2% FBS (w/v) in 1×PBS (flow cytometry staining buffer) by centrifugation with benchtop Centrifuge 5810R (Eppendorf®, Hamburg, Germany). Cells were incubated for 30 minutes at 4° C. with serial dilutions of following antibodies ranging from 1.7 pM to 100 nM in flow cytometry staining buffer (1) anti-CD40×CD40 bispecific antibodies, or (2) parental anti-CD40 antibodies (bivalent antibodies comprising 2 fragment antigen-binding [Fab] arms identical to one of the two anti-CD40 Fab of bispecific anti-CD40×CD40 antibodies), or (3) anti-CD40×Irrelevant antibodies (bivalent antibodies that incorporate one Fab arm identical to one of anti-CD40 Fab of anti-CD40×CD40 antibodies and another Fab arm specific to an irrelevant antigen, i.e. birch pollen main allergen Bet v1), or (4) human IgG4 isotype control antibodies with Fc mutation. After washing, cell bound antibodies were detected with 2.5 μg/ml Allophycocyanin (APC)-conjugated goat anti-human IgG antibody specific for the Fcγ fragment (Jackson Immunoresearch, West Grove, PA) for 30 minutes at 4° C. Cells were washed and subsequently fixed with 50% solution of Cytofix™ Fixation Buffer (BD, Franklin Lakes, NJ) in flow cytometry staining buffer for 20 minutes at room temperature. Cells were washed and resuspended in flow cytometry staining buffer and stored at 4° C. for downstream flow cytometry analysis.
(§2) Acquisition of fluorescence signals were recorded on the ZE5 Cell Analyzer (Bio-Rad, Hercules, CA) according to the manufacturer's recommended procedure and flow cytometry data analysis was performed using the open-source R packages flowCore, flowStats, flowDensity, ggCyto, and flowAI. Multiplexed samples were deconvoluted and individual cell populations were identified based on their unique CellTrace™ fluorescence signature. APC Median Fluorescence intensity (MFI) was recorded to indicate the binding intensity of each antibody over a range of concentrations. Antibodies with MFI greater than 1500 at the highest tested concentration (100 nM) were classified as specific binders. In addition, direct binding signals (APC MFI) were analyzed as a function of the antibody concentration and data were fitted with a sigmoidal (four-parameter logistic) dose-response model using GraphPad Prism™ software.

[11] = biological target: T1, human CD40 (hCD40) expressed on cells; experiment: flow cytometry, HEK293/D9/hCD40 cells
Description: as §1, §2

[12] = biological target: T2, Macaca fascicularis CD40 (mfCD40) expressed on HEK293/D9/mfCD40 cells (Macaca fascicularis, UniProt G7PG38 21-278); experiment: flow cytometry, HEK293/D9/mfCD40 cells
T2 construct: whole, on cells; also called monkey CD40
Description: as §1, §2

[13] = biological target: T3, human CD40 extracellular domain expressed with a C-terminal myc-myc-hexahistidine tag (human); experiment: ELISA blocking of 40 nM hCD40-mmH binding to 9His-hCD40L
T3 construct: also called hCD40-MMH; hCD40-mmH
Source text: An ELISA-based blocking assay was developed to determine the ability of C40×CD40 bispecific antibodies to block the binding of the hCD40 monomer to plate-coated hCD40L. The recombinant human CD40-mmH protein (hCD40-MMH; REGN3094; SEQ ID NO: 53) used in the experiments comprises a portion of the human CD40 extracellular domain (amino acids P20-R193) fused to 2×Myc peptide and 6×histadine (SEQ ID NO: 1110) at the C-terminus of human CD40, and the human CD40L (accession #NM_000074.2) with amino acids E108-L261 of the extracellular domain with 9×His-2×(SGGG)-IGER at the N-terminus (9His-hCD40L) was commercially obtained from Biolegend.
In the blocking assay, 9His-hCD40L was passively absorbed at a concentration of 5 μg/mL in PBS on a 96-well microtiter plate overnight at 4° C. […] In a separate 96-well microtiter plate, a fixed amount of 40 nM hCD40-mmH was pre-mixed with one of the following antibodies, at concentrations ranging from 977 pM to 1 μM in PBS+0.5% BSA: (1) CD40×CD40 bispecific antibodies (REGN16431, REGN16432, REGN16634, and REGN16335); (2) parental CD40 mAbs (bivalent antibodies comprising 2 fragment antigen-binding [Fab] arms identical to one of anti-CD40 Fab of CD40×CD40 antibodies); (3) CD40×Irrelevant antibodies (bivalent antibodies that incorporate one Fab arm identical to one of anti-CD40 Fab of CD40×CD40 antibodies and another Fab arm specific to an irrelevant antigen); and (4) human IgG4 with Fc mutation isotype control antibodies (REGN7540 and REGN4513). The fixed concentration of hCD40-mmH was selected to be near the concentration (EC₅₀ value) that generated 50% of the maximal binding to the plate-adhered 9His-hCD40L. After one-hour incubation, the antibody-antigen complexes were transferred to the microtiter plate coated with 9His-hCD40L. After one hour incubation at room temperature, the plates were washed, and plate-bound hCD40-mmH protein was detected with horseradish peroxidase (HRP) conjugated goat anti-c-Myc antibody. The plates were then developed using TMB substrate solution (BD Biosciences) according to the manufacturer's recommended procedure and the absorbance at 450 nm (OD₄₅₀) was measured on a SpectraMax i3×plate reader.

T1 sequence (P25942 21-277): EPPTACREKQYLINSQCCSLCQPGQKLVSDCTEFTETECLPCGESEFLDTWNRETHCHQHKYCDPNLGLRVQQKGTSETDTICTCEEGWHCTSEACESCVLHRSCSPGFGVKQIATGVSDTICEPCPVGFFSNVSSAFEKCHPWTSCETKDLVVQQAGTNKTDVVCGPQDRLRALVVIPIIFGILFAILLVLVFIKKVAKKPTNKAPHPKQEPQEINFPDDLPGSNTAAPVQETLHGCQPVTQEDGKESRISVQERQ
T3 sequence (chain, as listed by the source limits assumed): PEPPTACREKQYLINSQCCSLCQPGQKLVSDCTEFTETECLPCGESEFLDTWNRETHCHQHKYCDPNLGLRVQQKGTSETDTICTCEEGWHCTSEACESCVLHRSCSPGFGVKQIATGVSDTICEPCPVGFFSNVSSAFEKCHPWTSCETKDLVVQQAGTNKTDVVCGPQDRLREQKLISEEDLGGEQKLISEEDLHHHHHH

B1: REGN16335 (bispecific antibody, human IgG4 S228P, kappa)
heavy 1: EVQLVESGGGLVQPGGSLRLSCAASGFTFSSYAMNWVRQAPGKGLEWVSIISGTIGKTYYADSVKGRFTISRDNSKNTLYLQMNSLRGEDTAVYYCAKDTERDITGSPFDYWGQGTLVTVSSASTKGPSVFPLAPCSRSTSESTAALGCLVKDYFPEPVTVSWNSGALTSGVHTFPAVLQSSGLYSLSSVVTVPSSSLGTKTYTCNVDHKPSNTKVDKRVESKYGPPCPPCPAPGGGGPSVFLFPPKPKDTLMISRTPEVTCVVVDVSQEDPEVQFNWYVDGVEVHNAKTKPREEQFNSTYRVVSVLTVLHQDWLNGKEYKCKVSNKGLPSSIEKTISKAKGQPREPQVYTLPPSQEEMTKNQVSLTCLVKGFYPSDIAVEWESNGQPENNYKTTPPVLDSDGSFFLYSRLTVDKSRWQEGNVFSCSVMHEALHNHYTQKSLSLSLGK
heavy 2: EVQLVESGGGLVQPGGSLRLSCAASGFTFGSYGMAWVRQAPGKGLEWVSAISGSGDYTNYADSVKRRFTISRDNSKNTLYLQMSSLRAEDTAVYYCAKEKTGTTGYLYSGMDVWGQGTTVTVSSASTKGPSVFPLAPCSRSTSESTAALGCLVKDYFPEPVTVSWNSGALTSGVHTFPAVLQSSGLYSLSSVVTVPSSSLGTKTYTCNVDHKPSNTKVDKRVESKYGPPCPPCPAPGGGGPSVFLFPPKPKDTLMISRTPEVTCVVVDVSQEDPEVQFNWYVDGVEVHNAKTKPREEQFNSTYRVVSVLTVLHQDWLNGKEYKCKVSNKGLPSSIEKTISKAKGQPREPQVYTLPPSQEEMTKNQVSLTCLVKGFYPSDIAVEWESNGQPENNYKTTPPVLDSDGSFFLYSRLTVDKSRWQEGNVFSCSVMHEALHNRFTQKSLSLSPGK
light: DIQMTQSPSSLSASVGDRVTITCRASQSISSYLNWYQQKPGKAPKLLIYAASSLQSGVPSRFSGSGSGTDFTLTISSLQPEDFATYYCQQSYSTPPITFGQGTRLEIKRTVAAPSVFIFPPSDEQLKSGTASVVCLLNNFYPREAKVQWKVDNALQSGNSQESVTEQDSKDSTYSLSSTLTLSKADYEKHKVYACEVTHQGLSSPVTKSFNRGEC
notes: D1 arm from 30027P2, D2 arm from 21520P2, common light chain; also called CD40xCD40 (30027 x 21520)
With B1 the “IC50, 500 pM hCD40L, Ramos NFkB-luc” value [1] was 3.86e-11 M, the “Max % activation, no ligand, Ramos NFkB-luc” value [1] was 5% and the “Max % inhibition, 500 pM hCD40L, Ramos NFkB-luc” value [1] was 93%. For the same binder, the “IC50, 900 pM hCD40L, Raji NFkB-luc” value [2] was 4.94e-11 M, the “Max % activation, no ligand, Raji NFkB-luc” value [2] was 9% and the “Max % inhibition, 900 pM hCD40L, Raji NFkB-luc” value [2] was 102%. For the same binder, the “IC50, 10 nM hCD40L, THP-1 NFkB-luc” value [3] was 0.221 nM, the “Max % activation, no ligand, THP-1 NFkB-luc” value [3] was 3% and the “Max % inhibition, 10 nM hCD40L, THP-1 NFkB-luc” value [3] was 98%. The “% max blockade relative to no mAb, IL-6, donor 1” value [4] was 83.2%, the “% max blockade relative to no mAb, IL-6, donor 2” value [4] was 91.4% and the “% max blockade relative to no mAb, IL-6, donor 3” value [4] was 91.4%. For the same binder, the “% max blockade relative to no mAb, IL-10, donor 1” value [5] was 78.5%, the “% max blockade relative to no mAb, IL-10, donor 2” value [5] was 93.6% and the “% max blockade relative to no mAb, IL-10, donor 3” value [5] was 89.8%. The “% max blockade relative to no mAb, TNFa, donor 1” value [6] was 45%, the “% max blockade relative to no mAb, TNFa, donor 2” value [6] was 64.7% and the “% max blockade relative to no mAb, TNFa, donor 3” value [6] was 61.6%. For the same binder, the “% max blockade relative to no mAb, IL-6, assay #2 donor 1” value [7] was 88.4%, the “% max blockade relative to no mAb, IL-6, assay #2 donor 2” value [7] was 87% and the “% max blockade relative to no mAb, IL-10, assay #2 donor 1” value [8] was 88.5%. For the same binder, the “% max blockade relative to no mAb, IL-10, assay #2 donor 2” value [8] was 87.8%, the “% max blockade relative to no mAb, TNFa, assay #2 donor 1” value [9] was 62.4% and the “% max blockade relative to no mAb, TNFa, assay #2 donor 2” value [9] was 52.5%. For the same binder, the EC50 [10] was 1 nM, the “MFI at 100 nM” value [10] was 3750 MFI and the EC50 [11] was 1.6 nM. For the same binder, the “MFI at 100 nM” value [11] was 28900 MFI, the EC50 [12] was 2.4 nM and the “MFI at 100 nM” value [12] was 47300 MFI. For the same binder, the “% Blocking at 1 uM mAb” value [13] was 96% and the IC50 [13] was 32 nM.
